The record followed here is article PMC13635227 (Nature Communications, 2026).

The star is where a group is joined. Biotin = O=C1N[C@H]2[C@H](CS[C@H]2CCCCC(=O)*)N1; AEEA = NCCOCCOCC(=O)O

Common to all, as to test: BLI
In test [1] the target is T1, Biotin-PEG-EAEEPSLLKKLLLAPANTQ-NH2 (LXXLL motif peptide, amino acids 135-153 of PPAR coactivator 1α, PGC-1α) (SMILES …).
T1 peptide: {Biotin-AEEA}-EAEEPSLLKKLLLAPANTQ-NH2

Test [2] deals with T1, Biotin-PEG-EAEEPSLLKKLLLAPANTQ-NH2 ….
Test [3] has the same target.

B1: Full-length mouse PPAR-α (peroxisome proliferator-activated receptor α), tag-free (natural protein, UniProt P23204 1-468, looked up)
chain: MVDTESPICPLSPLEADDLESPLSEEFLQEMGNIQEISQSIGEESSGSFGFADYQYLGSCPGSEGSVITDTLSPASSPSSVSCPVIPASTDESPGSALNIECRICGDKASGYHYGVHACEGCKGFFRRTIRLKLVYDKCDRSCKIQKKNRNKCQYCRFHKCLSVGMSHNAIRFGRMPRSEKAKLKAEILTCEHDLKDSETADLKSLGKRIHEAYLKNFNMNKVKARVILAGKTSNNPPFVIHDMETLCMAEKTLVAKMVANGVEDKEAEVRFFHCCQCMSVETVTELTEFAKAIPGFANLDLNDQVTLLKYGVYEAIFTMLSSLMNKDGMLIAYGNGFITREFLKNLRKPFCDIMEPKFDFAMKFNALELDDSDISLFVAAIICCGDRPGLLNIGYIEKLQEGIVHVLKLHLQSNHPDDTFLFPKLLQKMVDLRQLVTEHAQLVQVIKKTESDAALHPLLQEIYRDMY
Take B1: the “EC50 of ciprofibrate (small-molecule ligand of PPAR-α) in promoting the binding” value in test [1] is 5.4 µM. For the same molecule, the “EC50 of palmitic acid (small-molecule ligand of PPAR-α) in promoting the binding” value in test [2] stood at 190 µM. In test [3], the “EC50 of TFA (small-molecule ligand of PPAR-α) in promoting the binding” value was 4900 µM.
